B1: FLAG-tagged UbxD8 (wild type) (natural protein)
chain: MAAPEERDLTQEQTEKLLQFQDLTGIESMDQCRHTLEQHNWNIEAAVQDRLNEQEGVPSVFNPPPSRPLQVNTADHRIYSYVVSRPQPRGLLGWGYYLIMLPFRFTYYTILDIFRFALRFIRPDPRSRVTDPVGDIVSFMHSFEEKYGRAHPVFYQGTYSQALNDAKRELRFLLVYLHGDDHQDSDEFCRNTLCAPEVISLINTRMLFWACSTNKPEGYRVSQALRENTYPFLAMIMLKDRRMTVVGRLEGLIQPDDLINQLTFIMDANQTYLVSERLEREERNQTQVLRQQQDEAYLASLRADQEKERKKREERERKRRKEEEVQQQKLAEERRRQNLQEEKERKLECLPPEPSPDDPESVKIIFKLPNDSRVERRFHFSQSLTVIHDFLFSLKESPEKFQIEANFPRRVLPCIPSEEWPNPPTLQEAGLSHTEVLFVQDLTDE
B2: FLAG-tagged UBAC2 (recombinant, WT) (natural protein)
chain: HCQKLFVYDLHAVKNDFQIWRLICGRIICLDLKDTFCSSLLIYNFRIFERRYGSRKFASFLLGSWVLSALFDFLLIEAMQYFFGITAASNLPSGFLAPVFALFVPFYCSIPRVQVAQILGPLSITNKTLIYILGLQLFTSGSYIWIVAISGLMSGLCYDSKMFQVHQVLCIPSWMAKFFSWTLEPIFSSSEPTSEARIGMGATLDIQRQQRMELLDRQLMFSQFAQGRRQRQQQGGMINWNRLFPPLRQRQNVNYQGGRQSEPAAPPLEVSEEQVARLMEMGFSRGDALEALRASNNDLNVATNFLLQH

Tests used:
FLAG-tagged gp78 = FLAG-tagged gp78 (UniProt Q9UKV5 1-643); test: co-IP
Chain of FLAG-tagged gp78 (Q9UKV5 whole entry): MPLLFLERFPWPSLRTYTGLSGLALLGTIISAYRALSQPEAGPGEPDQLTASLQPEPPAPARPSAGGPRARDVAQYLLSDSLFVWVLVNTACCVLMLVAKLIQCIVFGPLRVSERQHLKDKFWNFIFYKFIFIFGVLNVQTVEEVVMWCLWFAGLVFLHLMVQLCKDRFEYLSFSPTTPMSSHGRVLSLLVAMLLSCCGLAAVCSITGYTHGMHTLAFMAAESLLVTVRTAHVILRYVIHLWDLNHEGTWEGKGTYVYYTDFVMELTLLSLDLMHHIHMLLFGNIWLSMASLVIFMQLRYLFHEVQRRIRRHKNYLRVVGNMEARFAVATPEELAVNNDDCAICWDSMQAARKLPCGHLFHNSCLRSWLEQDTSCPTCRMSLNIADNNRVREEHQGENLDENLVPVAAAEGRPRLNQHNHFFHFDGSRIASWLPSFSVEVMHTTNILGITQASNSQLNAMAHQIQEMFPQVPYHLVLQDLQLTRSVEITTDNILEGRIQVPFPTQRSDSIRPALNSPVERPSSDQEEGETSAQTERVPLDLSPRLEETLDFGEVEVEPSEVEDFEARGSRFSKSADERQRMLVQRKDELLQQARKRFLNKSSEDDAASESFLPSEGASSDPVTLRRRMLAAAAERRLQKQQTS

[1] = target: B1; test: co-IP

Binder	stoichiometry N (FLAG-tagged gp78)	stoichiometry N [1]
B1	~1 UbxD8 per gp78	
B2	~2 UBAC2 per gp78	~2 UBAC2 per UbxD8

Reference: PMC4666138 (Molecular Biology of the Cell, 2015)
